Molecular target: MERS-CoV S2 stem helix peptide (MERS-CoV)
Experiment: BLI

Chain of S2P6 (antibody) (VH): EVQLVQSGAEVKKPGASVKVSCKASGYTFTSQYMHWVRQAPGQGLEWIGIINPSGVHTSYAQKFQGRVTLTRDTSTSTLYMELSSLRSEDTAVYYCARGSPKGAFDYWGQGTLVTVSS
Chain of S2P6 (antibody) (VL): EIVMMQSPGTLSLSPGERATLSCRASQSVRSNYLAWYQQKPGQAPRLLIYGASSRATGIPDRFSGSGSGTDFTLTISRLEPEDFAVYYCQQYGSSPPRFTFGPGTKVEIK

S2P6 (antibody)
Kd: 0.723 nM
kon: 315000 M⁻¹ s⁻¹

— PMC13480645
